# Source: article PMC9175492
# Key:
# [1] = molecular target: proteins in FBS (bovine (fetal bovine serum)); assay: fluorescence polarisation
# [2] = molecular target: LgBit, an 18-kDa subunit of NanoLuc; assay: split reporter
Kd [1],fold induction of luminescence at 10 μM [2],Substance
29 µM,,FITC-labeled CPP12 (peptide)
1.3 µM,,NF-labeled CPP12 (peptide)
27 µM,,TMR-labeled CPP12 (peptide)
,200 fold,CPP12-HiBit conjugate (peptide)
